Values joined by “and” are separate entries in the source; they are usually repeats but may differ in a detail not shown here. Equal entries are not always repeated.

The target of the test is SARS-CoV-2 spike protein, extraviral domain (aa 1-1213) (SARS-CoV-2) (UniProt P0DTC2). Briefly: SPR. In general terms: SPR reads the build-up and loss of mass on a sensor chip optically.

Consider “pineapple-derived jacalin-related lectin AcmJRL (natural protein)”, for which the KD of a single replicate, from Langmuir isotherm is 7.9 µM and 11.5 µM and 14 µM; the KD of a single replicate, from rate constants is 3.1 µM and 4 µM and 2.7 µM; the Kd was 3.27 µM and 11.1 µM; the koff came to 0.00342 s⁻¹. This substance also displayed a kon of 1060 M⁻¹ s⁻¹.

A word on the Kd: it is the constant that tells how readily two partners part at equilibrium. Low values mean a tighter complex, high ones a looser complex. The term koff denotes the rate constant with which the complex falls apart. A word on the kon: it is the rate constant with which the complex forms. Read a low kon as slow association.
